Data from PMC7826336.

Experiments:
prekallikrein (PK) = assay: SPR; Pioneer biosensor, COOHV chip; PMSF-treated PK (FC-1) or PKa (FC-3) immobilised by amine coupling; analytes diluted to 250 nM, OneStep gradient injection, 30 uL/min, dissociation 600 s; 22 °C; 10 mM Hepes, 140 mM NaCl, 1.5 mM CaCl2, 40 uM ZnCl2 pH 7.4; simple ka/kd 1 or 2 binding site model
kallikrein (PKa) = kallikrein (PKa) (UniProt P03952); assay: as above
kallikrein (PKa), sequence (P03952 20-390, chain 1 of 2): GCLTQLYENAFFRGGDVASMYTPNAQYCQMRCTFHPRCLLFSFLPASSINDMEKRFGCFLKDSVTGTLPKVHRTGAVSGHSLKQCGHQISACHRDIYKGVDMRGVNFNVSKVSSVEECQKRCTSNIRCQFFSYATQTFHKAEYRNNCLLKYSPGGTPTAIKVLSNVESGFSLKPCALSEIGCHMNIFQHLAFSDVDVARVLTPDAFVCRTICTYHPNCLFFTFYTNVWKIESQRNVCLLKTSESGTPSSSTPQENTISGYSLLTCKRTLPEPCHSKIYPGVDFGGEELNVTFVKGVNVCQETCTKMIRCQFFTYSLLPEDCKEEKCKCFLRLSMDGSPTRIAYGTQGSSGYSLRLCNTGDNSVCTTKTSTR
kallikrein (PKa), sequence (P03952 391-638, chain 2 of 2): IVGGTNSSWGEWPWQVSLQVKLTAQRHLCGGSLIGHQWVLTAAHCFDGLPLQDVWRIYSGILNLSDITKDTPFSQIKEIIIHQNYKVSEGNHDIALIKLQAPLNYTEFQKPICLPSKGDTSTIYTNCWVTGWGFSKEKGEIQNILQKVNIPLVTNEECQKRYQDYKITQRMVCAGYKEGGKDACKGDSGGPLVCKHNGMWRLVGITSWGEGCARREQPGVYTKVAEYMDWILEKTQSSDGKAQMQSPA

| Kd (prekallikrein (PK)) [nM] | koff (prekallikrein (PK)) [s⁻¹] | kon (prekallikrein (PK)) [M⁻¹ s⁻¹] | Kd (kallikrein (PKa)) [nM] | koff (kallikrein (PKa)) [s⁻¹] | kon (kallikrein (PKa)) [M⁻¹ s⁻¹] | Substance |
| --- | --- | --- | --- | --- | --- | --- |
| 2.17 | 0.000239 | 110000 | – | – | – | Factor IX (FIX) (from UniProt P00740 47-461) (natural protein) |
| 0.492 | 6.45e-05 | 131000 | – | – | – | activated Factor IX (FIXa) (from UniProt P00740 47-191; P00740 227-461) (enzyme) |
| 0.245 | 3.73e-05 | 152000 | 0.272 | 2.82e-05 | 104000 | high molecular weight kininogen (HK) (natural protein) |
